Source: PMC6336407

How the values were obtained:
[1] = target: IRE1-KR43 labeled with RED dye (human); assay: MST; 100 nM IRE1-KR43 labeled with RED dye incubated with 80S at various concentrations for 30 min at 25°C; Monolith NT.115, 20% LED power, 40% IR-laser
[2] = target: IRE1 KR with N-terminal 6× His-tag (human); assay: BLI; His-tagged IRE1 KR coupled to Ni-NTA biosensors; 80S or 60S at 5 to 500 nM in solution; 25°C, 25 mM HEPES pH 7.4, 150 mM KCl, 5 mM MgCl2, 250 µM TCEP; OCTET RED384

In the case of purified 80S ribosomes (complex), the Kd [1] is reported as 30 nM, the Kd [2] is reported as 33.4 nM and the koff [2] is reported as 0.0598 s⁻¹. The kon [2] was 1.81e+06 M⁻¹ s⁻¹.
